Legend:
[1] = biological target: recombinant LXRα ligand-binding domain, GST-tagged; experiment: FRET or BRET; LanthaScreen TR-FRET coactivator assay, cell-free, antagonist mode: GST-LXRα LBD, fluorescein Trap220 peptide, TO901317 at its EC80 in all wells (250 nM by methods and legend, 1 µM by the results text), increasing naringenin
[2] = biological target: recombinant LXRα ligand-binding domain, GST-tagged; experiment: FRET or BRET; LanthaScreen TR-FRET coactivator assay, cell-free, agonist mode: GST-LXRα LBD labelled by terbium anti-GST antibody, fluorescein Trap220 peptide, increasing naringenin; percent activation compared to maximal activation of positive control (TO901317)
LXRα [3] = biological target: T1, LXRα (Homo sapiens, UniProt Q13133); experiment: LanthaScreen TR-FRET coactivator recruitment, agonist and antagonist modes, purified LBD; supported by GAL4-LBD reporter; format: biochemical
T1 construct: gene NR1H3
T1 sequence (Q13133 209-447 limits assumed): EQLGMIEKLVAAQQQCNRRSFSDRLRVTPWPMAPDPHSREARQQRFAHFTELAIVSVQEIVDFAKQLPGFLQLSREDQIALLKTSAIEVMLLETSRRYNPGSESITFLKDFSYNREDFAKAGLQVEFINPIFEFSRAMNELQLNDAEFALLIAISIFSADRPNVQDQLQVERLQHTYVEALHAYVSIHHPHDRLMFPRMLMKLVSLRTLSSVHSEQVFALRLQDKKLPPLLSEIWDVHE

PPARγ = biological target: T2, PPARγ (Homo sapiens, UniProt P37231); experiment: GAL4-PPARγ LBD luciferase reporter in HG5LN (HeLa) cells; format: cell-based; settings: read-out: % activation at 80 μM
T2 construct: gene PPARG; GAL4(1–147)-PPARγ LBD fusion
T2 sequence (P37231 231-505 limits assumed): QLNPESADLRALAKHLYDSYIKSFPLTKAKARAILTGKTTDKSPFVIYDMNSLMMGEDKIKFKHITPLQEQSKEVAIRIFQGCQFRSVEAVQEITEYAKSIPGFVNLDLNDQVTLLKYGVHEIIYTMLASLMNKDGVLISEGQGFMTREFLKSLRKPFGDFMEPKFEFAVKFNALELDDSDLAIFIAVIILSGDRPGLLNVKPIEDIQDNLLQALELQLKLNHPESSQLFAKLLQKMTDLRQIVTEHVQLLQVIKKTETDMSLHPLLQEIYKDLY

LXRα [4] = biological target: T1, LXRα; experiment: LanthaScreen TR-FRET coactivator recruitment, purified LBD (EC80 measured in this assay); format: binding

fluorescein-labeled Trap 220/Drip-2 co-activator peptide
percent inhibition of binding by 133 µM naringenin in the presence of 1 µM TO901317 [1]: 11.6%
percent inhibition of the TR-FRET signal by 133 µM naringenin with 250 nM TO901317 [1]: 15%
percent activation of TR-FRET signal with naringenin, relative to TO901317 [2]: 38%

O=C1C[C@@H](c2ccc(O)cc2)Oc2cc(O)cc(O)c21 [naringenin]
% activation (LXRα [3]): 38.0±2.8 % activation
Emax at 80 µM (PPARγ): 57 ± 0.3%

O=S(=O)(c1ccccc1)N(CC(F)(F)F)c1ccc(C(O)(C(F)(F)F)C(F)(F)F)cc1 [TO901317]
LanthaScreen TR-FRET coactivator recruitment, purified LBD (EC80 measured in thi) (LXRα [4]): 250 nM

— paper PMC2928300, “Transcriptional Regulation of Human and Rat Hepatic Lipid Metabolism by the Grapefruit Flavonoid Naringenin: Role of PPARα, PPARγ and LXRα” (PLoS ONE, 2010)
